Experiments:
[1] = molecular target: Kid (Escherichia coli plasmid R1) (UniProt P13976); assay: cell-based or functional assay
Kid = molecular target: T1, Kid (Escherichia coli plasmid R1, UniProt P13976 24-133); assay: co-retention of untagged Kid with HisKis on Ni2+-activated chelating sepharose; Kid released only by denaturation (eluted at 5.5 M guanidinium chloride)
T1 construct: expressed from p424Met25Kid in yeast and from pNATHA2 in HeLa cells; also called ParD kid toxin; killing determinant
T1 sequence (looked up): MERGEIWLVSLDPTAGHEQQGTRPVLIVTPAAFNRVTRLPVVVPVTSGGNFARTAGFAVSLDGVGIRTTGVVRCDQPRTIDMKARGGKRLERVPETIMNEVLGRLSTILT

Kis (from UniProt P13975 1-85)
dead cells (trypan blue), all other samples (incl. kis+/kid+ HeLa cells without Doxycyclin, Kis expressed) [1]: < 9% | dead cells (trypan blue), kis+/kid+ HeLa cells in presence of Doxycyclin, day five [1]: 32% | dead cells (trypan blue), kis+/kid+ HeLa cells in presence of Doxycyclin, day ten [1]: 65%

B1: HisKis (other, Escherichia coli plasmid R1, UniProt P13975 1-85, looked up)
chain: MHTTRLKRVGGSVMLTVPPALLNALSLGTDNEVGMVIDNGRLIVEPYRRPQYSLAELLAQCDPNAEISAEEREWLDAPATGQEEI
notes: Co-expressed with Kid from pRG-HisKisKid in E. coli C600 or TG1; also called His-tagged Kis; ParD kis antitoxin with N-terminal His tag; not shown: N-terminal His tag and linker from vector pET15b, subcloned into pRG-recA-NHis
binding result (Kid): binds

Source: EP1198239B1 (Cancer Research Ventures Limited, dated 2007)
